Experimental data: the supplement of paper PMC9112550, “Optimization of the antimicrobial peptide Bac7 by deep mutational scanning” (BMC Biology, 2022)

System: Escherichia coli TOP10
Experiment: shrunken log2 fold change of peptide-encoding DNA abundance (4.5 h post-induction vs induction); higher = less antimicrobial activity (less host growth inhibition)
Conditions: time post-induction: 4.5 h; library: site-saturation at positions 5, 18, 19, 20
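Further: peptides expressed intracellularly from a pBAD plasmid library in pooled LB shake-flask culture, induced with 0.3% L-arabinose, DNA abundance read by NGS, three biological replicates, DESeq2 with apeglm shrinkage.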

Sequence | shrunken log2 fold change
RRIRWRPPRLPRPRPRPKTEPRP | 0.111
RRIRNRPPRLPRPRPRPKYVPRP | -0.00968
RRIRYRPPRLPRPRPRPKGLPRP | -0.0102
RRIRIRPPRLPRPRPRPMDNPRP | -0.096
RRIRTRPPRLPRPRPRPLTSPRP | -0.255
RRIRFRPPRLPRPRPRPLCGPRP | -0.154
RRIRFRPPRLPRPRPRPIKPPRP | -0.4
RRIRMRPPRLPRPRPRPRCTPRP | 0.6
RRIRHRPPRLPRPRPRPVTNPRP | -0.222
RRIRGRPPRLPRPRPRPAAIPRP | 0.953
RRIRLRPPRLPRPRPRPNDAPRP | 0.229
RRIRMRPPRLPRPRPRPQQSPRP | 0.0524
RRIRGRPPRLPRPRPRPYPPPRP | -0.0824
RRIRERPPRLPRPRPRPWIIPRP | -0.269
RRIRERPPRLPRPRPRPGPCPRP | 0.183
RRIRDRPPRLPRPRPRPNVIPRP | -0.0253
RRIRWRPPRLPRPRPRPKDSPRP | 0.118
RRIRQRPPRLPRPRPRPGINPRP | -0.296
RRIRYRPPRLPRPRPRPKSPPRP | 0.0245
RRIRFRPPRLPRPRPRPVDWPRP | 0.194
RRIRERPPRLPRPRPRPKSYPRP | -0.0792
RRIRCRPPRLPRPRPRPRGIPRP | 0.094
RRIRCRPPRLPRPRPRPHCNPRP | -0.395
RRIRIRPPRLPRPRPRPDFVPRP | -0.0852
RRIRNRPPRLPRPRPRPSTTPRP | -0.47

Sequence | shrunken log2 fold change
RRIRNRPPRLPRPRPRPDEWPRP | 0.0842
RRIRRRPPRLPRPRPRPNQDPRP | 0.125
RRIRSRPPRLPRPRPRPPQAPRP | 0.768
RRIRYRPPRLPRPRPRPSTIPRP | -0.324
RRIRVRPPRLPRPRPRPVTLPRP | -0.227
RRIRHRPPRLPRPRPRPICLPRP | -0.225
RRIRERPPRLPRPRPRPWVPPRP | 0.0883
RRIRHRPPRLPRPRPRPAQIPRP | 0.276
RRIRTRPPRLPRPRPRPQLTPRP | -0.0274
RRIRFRPPRLPRPRPRPHLGPRP | 0.0424
RRIRLRPPRLPRPRPRPNSYPRP | -0.3
RRIRDRPPRLPRPRPRPKWNPRP | -0.159
RRIRPRPPRLPRPRPRPFCRPRP | 0.00205
RRIRVRPPRLPRPRPRPHWDPRP | -0.473
RRIRPRPPRLPRPRPRPKGHPRP | 0.106
RRIRDRPPRLPRPRPRPFWNPRP | -0.28
RRIRIRPPRLPRPRPRPLSCPRP | -0.253
RRIRERPPRLPRPRPRPLIGPRP | -0.0644
RRIRVRPPRLPRPRPRPWWLPRP | -0.0366
RRIRPRPPRLPRPRPRPINSPRP | -0.236
RRIRNRPPRLPRPRPRPTLPPRP | 0.149
RRIRERPPRLPRPRPRPWKVPRP | -0.0109
RRIRSRPPRLPRPRPRPHYIPRP | -0.556
RRIRSRPPRLPRPRPRPRSSPRP | -0.269
RRIRNRPPRLPRPRPRPGAYPRP | -0.00116

Sequence | shrunken log2 fold change
RRIRHRPPRLPRPRPRPEQSPRP | -0.0805
RRIRPRPPRLPRPRPRPQMEPRP | 0.0168
RRIRIRPPRLPRPRPRPRFPPRP | 0.0241
RRIRMRPPRLPRPRPRPSDNPRP | 0.0409
RRIRTRPPRLPRPRPRPKTWPRP | -0.268
RRIRHRPPRLPRPRPRPDFKPRP | -0.127
RRIRPRPPRLPRPRPRPFYVPRP | -0.459
RRIRKRPPRLPRPRPRPVYSPRP | 0.0204
RRIRVRPPRLPRPRPRPICRPRP | 0.177
RRIRQRPPRLPRPRPRPWGEPRP | -0.0675
RRIRNRPPRLPRPRPRPHFDPRP | -0.356
RRIRERPPRLPRPRPRPARTPRP | 0.0417
RRIRHRPPRLPRPRPRPSLIPRP | 0.954
RRIRSRPPRLPRPRPRPCIPPRP | -0.417
RRIRMRPPRLPRPRPRPWVDPRP | -0.034
RRIRHRPPRLPRPRPRPRAAPRP | 0.368
RRIRDRPPRLPRPRPRPHEHPRP | 0.00488
RRIRQRPPRLPRPRPRPPLHPRP | 0.24
RRIRHRPPRLPRPRPRPGDQPRP | -0.0414
RRIRYRPPRLPRPRPRPGFDPRP | -0.205
RRIRIRPPRLPRPRPRPTMAPRP | -0.445
RRIRVRPPRLPRPRPRPQGWPRP | 0.522
RRIRVRPPRLPRPRPRPTEPPRP | 0.128
RRIRMRPPRLPRPRPRPLWPPRP | 0.616
RRIRIRPPRLPRPRPRPQGAPRP | 0.0368

Sequence | shrunken log2 fold change
RRIRHRPPRLPRPRPRPIVWPRP | -0.2
RRIRARPPRLPRPRPRPEQWPRP | 0.0858
RRIRARPPRLPRPRPRPRLFPRP | 0.465
RRIRRRPPRLPRPRPRPIKPPRP | 0.0148
RRIRARPPRLPRPRPRPEPWPRP | 0.742
RRIRIRPPRLPRPRPRPRSLPRP | -0.036
RRIRIRPPRLPRPRPRPGHQPRP | -0.00431
RRIRCRPPRLPRPRPRPGAMPRP | 0.319
RRIRKRPPRLPRPRPRPNPLPRP | 0.0246
RRIRNRPPRLPRPRPRPQMWPRP | -0.234
RRIRARPPRLPRPRPRPKWEPRP | 0.0262
RRIRDRPPRLPRPRPRPCDHPRP | -0.0216
RRIRYRPPRLPRPRPRPKINPRP | -0.902
RRIRDRPPRLPRPRPRPLRFPRP | 0.61
RRIRQRPPRLPRPRPRPHFTPRP | -0.217
RRIRHRPPRLPRPRPRPWPKPRP | 0.015
RRIRKRPPRLPRPRPRPSSTPRP | -0.151
RRIRTRPPRLPRPRPRPPCTPRP | -0.0757
RRIRARPPRLPRPRPRPWLGPRP | 0.417
RRIRARPPRLPRPRPRPPFCPRP | 0.31
RRIRYRPPRLPRPRPRPLWQPRP | -0.499
RRIRKRPPRLPRPRPRPGRWPRP | 0.622
RRIRTRPPRLPRPRPRPRNTPRP | -0.209
RRIRRRPPRLPRPRPRPVIFPRP | 0.145
RRIRNRPPRLPRPRPRPKSYPRP | -0.0423

Sequence | shrunken log2 fold change
RRIRCRPPRLPRPRPRPLRAPRP | 1.02
RRIRPRPPRLPRPRPRPVRFPRP | 0.28
RRIRRRPPRLPRPRPRPHHIPRP | -0.637
RRIRWRPPRLPRPRPRPRKRPRP | 0.726
RRIRNRPPRLPRPRPRPTLLPRP | -0.168
RRIRHRPPRLPRPRPRPQWDPRP | -0.0406
RRIRMRPPRLPRPRPRPQSYPRP | 0.00618
RRIRTRPPRLPRPRPRPMFYPRP | -0.359
RRIRFRPPRLPRPRPRPDIWPRP | -0.273
RRIRDRPPRLPRPRPRPKMCPRP | -0.0407
RRIRCRPPRLPRPRPRPHAEPRP | 0.315
RRIRARPPRLPRPRPRPEKHPRP | 0.0578
RRIRLRPPRLPRPRPRPYLTPRP | -0.663
RRIRWRPPRLPRPRPRPLQCPRP | 0.101
RRIRGRPPRLPRPRPRPMHIPRP | 1.77
RRIRYRPPRLPRPRPRPWQNPRP | -0.103
RRIRIRPPRLPRPRPRPSYMPRP | -1.53
RRIRRRPPRLPRPRPRPNVHPRP | -0.203
RRIRCRPPRLPRPRPRPIYQPRP | -0.306
RRIRQRPPRLPRPRPRPWDCPRP | -0.383
RRIRWRPPRLPRPRPRPPAYPRP | -0.0328
RRIRKRPPRLPRPRPRPACLPRP | 0.222
RRIRNRPPRLPRPRPRPSWFPRP | -0.398
RRIRSRPPRLPRPRPRPSQGPRP | -0.252
RRIRYRPPRLPRPRPRPMMEPRP | -0.141

Sequence | shrunken log2 fold change
RRIRHRPPRLPRPRPRPLRTPRP | 1.02
RRIRRRPPRLPRPRPRPTSHPRP | 0.321
RRIRDRPPRLPRPRPRPCDDPRP | 0.0345
RRIRLRPPRLPRPRPRPELQPRP | 0.328
RRIRPRPPRLPRPRPRPGTCPRP | 0.182
RRIRWRPPRLPRPRPRPHSNPRP | -0.09
RRIRTRPPRLPRPRPRPGKNPRP | -0.24
RRIRNRPPRLPRPRPRPWSFPRP | -0.538
RRIRQRPPRLPRPRPRPHGEPRP | 0.215
RRIRHRPPRLPRPRPRPHWEPRP | -0.211
RRIRGRPPRLPRPRPRPGLLPRP | 0.791
RRIRLRPPRLPRPRPRPDVCPRP | 0.0271
RRIRSRPPRLPRPRPRPPGIPRP | 0.157
RRIRYRPPRLPRPRPRPWRYPRP | 0.026
RRIRVRPPRLPRPRPRPTPTPRP | 0.349
RRIRTRPPRLPRPRPRPCIGPRP | -0.0176
RRIRCRPPRLPRPRPRPLLVPRP | -0.317
RRIRLRPPRLPRPRPRPMVLPRP | -0.239
RRIRTRPPRLPRPRPRPKGCPRP | 0.00952
RRIRNRPPRLPRPRPRPEIDPRP | 0.166
RRIRARPPRLPRPRPRPAEFPRP | 0.304
RRIRIRPPRLPRPRPRPPLGPRP | 0.164
RRIRYRPPRLPRPRPRPNLIPRP | -0.438
RRIRNRPPRLPRPRPRPQAGPRP | -0.128
RRIRFRPPRLPRPRPRPNHFPRP | -0.0292
